The target in data set [1] is T1, Aβ42 (Homo sapiens, UniProt P05067). Put plainly: ELISA using CDR-based synthetic peptides: biotinylated Aβ42 added to peptide-coated plates. It is filed as binding. The method, then:
ELISA analysis was carried out using MaxiSorp microtiter plates coated overnight with synthetic peptide at a concentration of 10 μg/ml in carbonate buffer. After washing, plates were blocked with PBS/2% BSA for 1 h at 37° C. After incubation and a washing step, biotinylated Aβ42 was added to each well. Plates were again incubated for 1 h at 37° C., washed, and reacted with an avidin-peroxidase conjugate diluted 1:500 (Pharmingen, San Jose, Calif., USA) followed by the ABTS single solution (Zymed) as described above.
Background: An ELISA detects its analyte on a solid surface through an enzyme-linked reagent.

The test system of data set [2] is rat cultured hippocampal neurons.
Method: (§2) Primary cultures of hippocampal neurons were prepared from 17-18 day gestational Wistar rat embryos as described previously (Brewer et al., 1993) with some modifications (Massieu et al., 2003). Briefly, after dissection, 10-12 hippocampi were chopped into 300-μm cubes, incubated in a 0.25% trypsin solution, and dispersed by trituration in a 0.08% DNAase and 0.52% soybean trypsin inhibitor containing solution. Cells were suspended in Neurobasal culture medium (GIBCO/Life technologies, Rockville Md., USA) (Brewer et al. 1993) supplemented with B27 (Minus AO GIBCO/life technologies, Rockville, Md., USA), 0.5 mM L-glutamine, 20 μg/ml gentamicin, and 0.2 mM glutamate, and plated at a density of 260-290×10^3/cm^2 in Costar 48-well plates (Cambridge, Mass., USA), precoated with poly-L-lysine (5 μg/ml). Cells were cultured for 6 days in vitro (DIV) at 37° C. in a humidified 5% CO2/95% air atmosphere. Glucose (5 mM) and cytosine arabinoside (10 μM) were added to cultures 4 days after plating.
(§3) The effect of individual treatments of the different peptides on cell viability was also tested. Aβ42 was pre-incubated at 37° C. during 48 h to promote its aggregation and increase neurotoxicity. Cell viability was assessed by the MTT (3-(4,5-dimethylthiazol-2-yl)-2,5-diphenyltetrazolium bromide) dye reduction assay (Mosmann, 1983) as previously described (Garcia and Massieu, 2001). The assay is based on the ability of living mitochondria to convert MTT into insoluble formazan by active dehydrogenases.
(§4) In brief, 72 h after exposure to Aβ42, cell cultures were incubated with MTT (150 μM) during a 1 h period at 37° C. in a 5% CO2/95% O2-containing atmosphere. The medium was aspirated, and the precipitated formazan was solubilized with 0.480 ml isopropanol. After solubilization, isopropanol was transferred to eppendorf tubes, centrifuged (18 000 rpm for 30 s) and the optical density in the supernatant measured at 570 nm in a spectrofluorometer (Beckman DU-640). Cell damage was expressed as percent reduction in mitochondrial activity relative to control cultures. Data were expressed as means±SE (standard error) of 4 independent experiments.
Data set [3] deals with primary cultures of hippocampal neurons and mixed cortical neurons. The settings on record: cited from earlier work.
Data set [4] concerns the target T1, Aβ42. Briefly: Competition ELISA: binding of biotinylated Aβ42 to immobilized cyclic C44. The settings on record: competitor pre-incubated with biotinylated Aβ42 overnight at 4° C., N44 linear. The method, then:
For competition ELISA, cyclic C44 and linear N44 were diluted in PBS/1% BSA and incubated with biotinylated Aβ42 overnight at 4° C. prior to addition to plates coated with cyclic C44.

Data set [5] relates to rat cultured hippocampal neurons. Put plainly: Neuroprotection assay, Aβ42-induced neurotoxicity, MTT reduction.
Method: as §2, §3, §4
A further data set deals with T2, Dutch (E22Q) mutant Aβ42 (Homo sapiens, UniProt P05067, E693Q).
T2 construct: mutant Aβ42 (SynPep Corp., CA, USA); purchased SynPep Corp
Briefly: ELISA binding of phage-displayed scFv to Dutch mutant Aβ42. The settings on record: control wild type phage M13. The method, then:
(§1) Microtiter plates were coated with Aβ42 and blocked as described above, 10^10 of each phage clone were added, and after incubation for 1 h at 37° C., plates were washed with PBS/Tween. An anti-M13 monoclonal HRP (horseradish peroxidase) conjugate (Amersham Pharmacia Biotech, USA) diluted in PBS/1% BSA was then added to the plates followed by an incubation for 1 h 37° C. Plates were washed and the ABTS (2,2′-azino-bis(3-ethylbenzothiazoline-6-sulfonic acid) single solution (Zymed, San Francisco, Calif., USA) was added. The OD 405 nm readings were measured using Opsys MR Microplate Reader (DYNEX Technologies, Inc., Chantilly, Va., USA). An identical ELISA procedure was performed using Flemish (containing an A to G substitution at aa21; i.e. A21G) and Dutch (containing an E to Q substitution at aa22; E22Q) mutant Aβ42 (SynPep Corp., CA, USA).

The next data set concerns the target Aβ1-28 (Homo sapiens, UniProt P05067). Put plainly: ELISA binding of phage-displayed scFv to Aβ1-28. Particulars: control wild type phage M13.
The target of data set [6] is T3, Flemish (A21G) mutant Aβ42 (Homo sapiens, UniProt P05067, A692G).
T3 construct: mutant Aβ42 (SynPep Corp., CA, USA); purchased SynPep Corp
Briefly: ELISA binding of phage-displayed scFv to Flemish mutant Aβ42. The settings on record: control wild type phage M13. On the procedure: as §1

In another data set the target is T4, human Aβ42 (wild-type) (Homo sapiens, UniProt P05067).
T4 construct: coated overnight with 2 μg/ml of wild-type Aβ42 (BACHEM Bioscience Inc); purchased BACHEM Bioscience Inc
Put plainly: ELISA binding of phage-displayed scFv / serum to Aβ42-coated wells. The settings on record: control wild type phage M13. On the procedure: One week after the fourth immunization, mouse sera were tested in ELISA for the presence of specific anti-Aβ42 antibodies. Briefly, a 96-well plate (Nunc, Roskilde, Denmark) was coated with 1 μg/ml of Aβ42 in phosphate buffer (pH 7.8) overnight at 4° C. The plate was washed with phosphate buffer containing 0.1% Tween-20 (PBS-Tween) and blocked with PBS containing 2% bovine serum albumin (PBS-BSA). After washing, mouse sera diluted in PBS-BSA 1% was added, and the plate was incubated for 1 h at 37° C. The plate was washed and goat anti-mouse IgG conjugated with HRP (Zymed, San Francisco, Calif., USA) was added. After incubation for 1 h at 37° C., the plate was washed and 2,2′-azino-bis-(3-ethyl-benzothiazoline-6-sulphonic acid (ABTS) single solution (Zymed) was added. The OD reading at 405 was registered using Opsys MR Microplate Reader (DYNEX Technologies, Chantilly, Va., USA).
Fresh 2×YT without glucose but supplemented with ampicillin and kanamycin was added to each well, and plates were incubated overnight at 30° C. with shaking Microtiter plates (Nunc) were coated with Aβ and blocked as described above, supernatants from plates containing phage were added, and after incubation for 1 h at 37° C., plates were washed with PBS-Tween. […] The OD reading at 405 was registered using Opsys MR Microplate Reader (DYNEX Technologies). […]

Setting [7] is: plates coated with peptide 10 μg/ml.
The mark [8] stands for this setting: peptide in cyclic form, 40 μM with Aβ42 40 μM, 72 h.
[9] abbreviates: peptide in linear form, 40 μM with Aβ42 40 μM, 72 h.

Consider 7 molecules from patent US8394380B2, “Compositions and methods for alzheimer's disease” (Primex Clinical Laboratories, Inc., priority 2004, dated 2013).

Read-outs that look alike come from different tables or passages of the source. Positions of bridges follow the written chain, without caps; N, C: chain ends. No end group written: not given here.

Regarding “IWGCSGKLICTTAVP (not fully specified (bridges); also: cyclic, ring type not given here) [GM15, reference compound]”, the “binding to Aβ42 in ELISA” value with Aβ42 [1] (setting [7]) was “did not bind”.
For ASVRGWYVRSVFDPA [N44], the “effect of peptide alone on basal MTT reducing capacity” value in data set [2] was “Neither N44 nor C44 (either the linear or cyclic forms) alone altered basal MTT reducing capacity”.
For the molecule `CC[C@H](C)C(=O)O[C@H]1C[C@@H](C)C=C2C=C[C@H](C)[C@H](CC[C@@H]3C[C@@H](O)CC(=O)O3)[C@H]21` [lovastatin], the “intracellular and extracellular levels of Aβ” value in data set [3] is listed as “reduce”.
As for “CASVRGWYVRSVFDPAC (cyclic or linear) [C44]”, the “inhibition of binding of Aβ42 to immobilized cyclic C44” value in the data set with Aβ42 [4] is reported as “inhibited, in a dose dependent manner”. Besides, the “binding to Aβ42 in ELISA” value was “abolished completely” in the data set with Aβ42 [1] (cyclic peptide, S—S bond reduced with β-mercaptoethanol); “restored” in the data set with Aβ42 [1] (linear form after spontaneous air oxidation, overnight agitation); “recognized” in the data set with Aβ42 [1] (peptide in cyclic form); “weak recognition” with Aβ42 [1] (peptide in its linear form). Moreover, the “effect of peptide alone on basal MTT reducing capacity” value in data set [5] (peptide alone, without Aβ42) is recorded as “Neither N44 nor C44 (either the linear or cyclic forms) alone altered basal MTT reducing capacity”. Moreover, the results for the neuroprotective effect in data set [5] (peptide in cyclic form) and in data set [5] (peptide in linear form) were 53.6% and 69.3%, respectively. Moreover, in data set [5] (setting [8]), the “decrease in mitochondrial activity when co-incubated with Aβ42” value worked out at 11.9%. Further, the “protection against Aβ42 neurotoxicity” value in data set [5] (setting [8]) is given as “showed protection”. Further, the “prevention of Aβ42 neurotoxicity” value in data set [5] (setting [9]) is “significantly prevented”. For the same molecule, the “reduction in mitochondrial activity when co-incubated with Aβ42” value in data set [5] (setting [9]) is reported as 7.7%.
With “Aβ42: human amyloid-beta peptide, pre-aggregated, used as neurotoxic insult [reference compound]”, the “decrease in mitochondrial activity” value in [5] (Aβ42 40 μM alone, 72 h) is on record as 24.3%.
For “CADWRYRSVFGPVSVAC (disulfide 1-17 (inferred)) [Scr44, reference compound]”, in the data set with Aβ42 [1] (peptide in cyclic form, negative control), the “OD405, binding of biotinylated Aβ42 to coated peptide” value is on record as 0.25±0.03. Moreover, the “binding to Aβ42 in ELISA” value with Aβ42 [1] (setting [7]) was “did not bind”.

B1: b4.6: phage-displayed human anti-Aβ42 scFv, SEQ ID NO:12, HCDR3 SHYWDS (protein)
scFv: QVQLQESGPGLVKPSETLSLTCSVSGGSVSSGNYYWTWIRQPPGKGLEWIGYIYSSGSTSYNPSLMSRVTISLDMSKNQFSLRLTSVTAADTAVYYCARSHYWDSWSPGTLVTVSSGGGGSGGGGSGGGGSDIVMTQSPSSMSASVGDTVTIACRASRDIRNDLAWYQQKPGKAPKLLIYAASRLQSGVPSRFSGSGSFTDFTLTIQLCLQPDDFATYYCLQDSDYPLTFGGGTKLEIKR
For the molecule B1, the “binding to Dutch mutant Aβ42 in ELISA” value with Dutch (E22Q) mutant Aβ42 is reported as “not statistically different from control phage M13”. Further, in the data set with Aβ1-28, the “binding to Aβ1-28 in ELISA” value is “not statistically different from control phage M13”. Further, in [6], the “binding to Flemish mutant Aβ42 in ELISA” value is reported as “bound”. Moreover, the “binding to wild type Aβ42 in ELISA” value with human Aβ42 (wild-type) is reported as “bound”.
